From PMC6631321 (Science signaling, 2019)
Values joined by “and” are separate entries in the source; they are usually repeats but may differ in a detail not shown here. Equal entries are not always repeated.

Tests used:
[1] = molecular target: the remaining proteins (α-actinin, afadin, band 4.1B, Scrib, and ZO-1); test: co-IP
RFP-ASPP2 [2] = molecular target: T1, RFP-ASPP2 (UniProt Q13625 1-1128); test: pull-down
T1 sequence (looked up): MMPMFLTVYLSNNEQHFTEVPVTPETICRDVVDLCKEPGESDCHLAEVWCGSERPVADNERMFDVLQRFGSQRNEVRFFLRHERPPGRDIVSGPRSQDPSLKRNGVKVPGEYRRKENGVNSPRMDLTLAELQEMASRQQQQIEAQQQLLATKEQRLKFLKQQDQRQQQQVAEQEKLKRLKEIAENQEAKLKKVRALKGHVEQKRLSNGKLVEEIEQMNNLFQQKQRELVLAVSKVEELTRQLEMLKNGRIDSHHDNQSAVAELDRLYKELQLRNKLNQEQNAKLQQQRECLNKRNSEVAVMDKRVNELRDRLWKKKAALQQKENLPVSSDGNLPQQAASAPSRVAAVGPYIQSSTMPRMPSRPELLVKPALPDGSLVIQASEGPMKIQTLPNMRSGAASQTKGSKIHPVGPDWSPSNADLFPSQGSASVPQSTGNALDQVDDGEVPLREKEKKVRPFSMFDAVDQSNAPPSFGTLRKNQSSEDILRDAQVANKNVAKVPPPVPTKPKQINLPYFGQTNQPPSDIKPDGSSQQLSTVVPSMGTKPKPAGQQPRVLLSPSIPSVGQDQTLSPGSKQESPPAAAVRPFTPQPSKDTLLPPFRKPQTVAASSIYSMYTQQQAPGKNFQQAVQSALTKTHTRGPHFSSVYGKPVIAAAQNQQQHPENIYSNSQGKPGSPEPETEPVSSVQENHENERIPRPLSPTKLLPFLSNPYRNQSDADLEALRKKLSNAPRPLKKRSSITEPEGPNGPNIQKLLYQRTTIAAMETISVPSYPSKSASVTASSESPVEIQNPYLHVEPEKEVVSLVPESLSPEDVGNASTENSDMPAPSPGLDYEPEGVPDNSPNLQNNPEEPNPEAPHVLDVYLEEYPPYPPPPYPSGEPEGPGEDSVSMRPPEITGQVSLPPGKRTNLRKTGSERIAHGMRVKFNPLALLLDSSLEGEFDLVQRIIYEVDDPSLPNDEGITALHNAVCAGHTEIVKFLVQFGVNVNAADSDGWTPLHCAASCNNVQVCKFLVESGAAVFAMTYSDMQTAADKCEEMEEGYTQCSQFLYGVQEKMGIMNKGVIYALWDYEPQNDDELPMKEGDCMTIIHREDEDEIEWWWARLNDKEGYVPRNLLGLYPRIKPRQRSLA

RFP-Lats1 [3] = molecular target: T2, RFP-Lats1 (UniProt O95835 1-1130); test: pull-down
T2 sequence (looked up): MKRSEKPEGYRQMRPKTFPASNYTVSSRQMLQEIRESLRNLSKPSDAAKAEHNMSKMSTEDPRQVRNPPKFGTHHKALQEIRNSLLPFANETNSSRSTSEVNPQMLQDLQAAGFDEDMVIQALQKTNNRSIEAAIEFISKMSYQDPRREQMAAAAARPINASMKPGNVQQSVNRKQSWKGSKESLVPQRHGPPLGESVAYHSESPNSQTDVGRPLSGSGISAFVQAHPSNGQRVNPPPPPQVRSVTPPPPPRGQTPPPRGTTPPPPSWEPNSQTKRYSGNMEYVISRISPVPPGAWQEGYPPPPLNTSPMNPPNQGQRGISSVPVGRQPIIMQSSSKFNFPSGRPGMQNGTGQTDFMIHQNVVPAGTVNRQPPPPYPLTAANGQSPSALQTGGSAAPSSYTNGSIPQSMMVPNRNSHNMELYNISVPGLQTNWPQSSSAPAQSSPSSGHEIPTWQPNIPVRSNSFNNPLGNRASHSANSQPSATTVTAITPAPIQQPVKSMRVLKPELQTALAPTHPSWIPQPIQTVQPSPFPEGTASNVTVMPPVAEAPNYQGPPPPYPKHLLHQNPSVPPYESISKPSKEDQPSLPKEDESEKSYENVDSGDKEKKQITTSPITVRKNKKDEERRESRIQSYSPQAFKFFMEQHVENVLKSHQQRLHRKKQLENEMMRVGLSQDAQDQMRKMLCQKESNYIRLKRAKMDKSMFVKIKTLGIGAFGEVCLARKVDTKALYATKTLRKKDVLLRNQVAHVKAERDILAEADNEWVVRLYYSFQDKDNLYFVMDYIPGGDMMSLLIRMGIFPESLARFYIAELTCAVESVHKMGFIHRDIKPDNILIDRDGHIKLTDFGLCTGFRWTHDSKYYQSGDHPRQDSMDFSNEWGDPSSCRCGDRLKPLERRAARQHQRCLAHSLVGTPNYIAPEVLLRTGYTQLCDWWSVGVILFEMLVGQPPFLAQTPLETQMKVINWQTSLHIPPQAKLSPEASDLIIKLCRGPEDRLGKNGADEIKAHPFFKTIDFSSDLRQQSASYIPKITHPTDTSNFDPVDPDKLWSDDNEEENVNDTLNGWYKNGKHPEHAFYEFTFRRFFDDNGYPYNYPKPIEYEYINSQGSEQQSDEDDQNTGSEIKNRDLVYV

RFP-Angiomotin, Q4VCS5 [4] = test: pull-down; conditions: remark: other sources report otherwise
RFP-Lats1 [5] = molecular target: T2, RFP-Lats1; test: co-IP
RFP-Angiomotin, Q4VCS5 [6] = test: co-IP; conditions: remark: other sources report otherwise
RFP-ASPP2 [7] = molecular target: T1, RFP-ASPP2; test: pull-down; remark: listed apart in the source

Chain of RFP-Angiomotin, Q4VCS5 (Q4VCS5 whole entry): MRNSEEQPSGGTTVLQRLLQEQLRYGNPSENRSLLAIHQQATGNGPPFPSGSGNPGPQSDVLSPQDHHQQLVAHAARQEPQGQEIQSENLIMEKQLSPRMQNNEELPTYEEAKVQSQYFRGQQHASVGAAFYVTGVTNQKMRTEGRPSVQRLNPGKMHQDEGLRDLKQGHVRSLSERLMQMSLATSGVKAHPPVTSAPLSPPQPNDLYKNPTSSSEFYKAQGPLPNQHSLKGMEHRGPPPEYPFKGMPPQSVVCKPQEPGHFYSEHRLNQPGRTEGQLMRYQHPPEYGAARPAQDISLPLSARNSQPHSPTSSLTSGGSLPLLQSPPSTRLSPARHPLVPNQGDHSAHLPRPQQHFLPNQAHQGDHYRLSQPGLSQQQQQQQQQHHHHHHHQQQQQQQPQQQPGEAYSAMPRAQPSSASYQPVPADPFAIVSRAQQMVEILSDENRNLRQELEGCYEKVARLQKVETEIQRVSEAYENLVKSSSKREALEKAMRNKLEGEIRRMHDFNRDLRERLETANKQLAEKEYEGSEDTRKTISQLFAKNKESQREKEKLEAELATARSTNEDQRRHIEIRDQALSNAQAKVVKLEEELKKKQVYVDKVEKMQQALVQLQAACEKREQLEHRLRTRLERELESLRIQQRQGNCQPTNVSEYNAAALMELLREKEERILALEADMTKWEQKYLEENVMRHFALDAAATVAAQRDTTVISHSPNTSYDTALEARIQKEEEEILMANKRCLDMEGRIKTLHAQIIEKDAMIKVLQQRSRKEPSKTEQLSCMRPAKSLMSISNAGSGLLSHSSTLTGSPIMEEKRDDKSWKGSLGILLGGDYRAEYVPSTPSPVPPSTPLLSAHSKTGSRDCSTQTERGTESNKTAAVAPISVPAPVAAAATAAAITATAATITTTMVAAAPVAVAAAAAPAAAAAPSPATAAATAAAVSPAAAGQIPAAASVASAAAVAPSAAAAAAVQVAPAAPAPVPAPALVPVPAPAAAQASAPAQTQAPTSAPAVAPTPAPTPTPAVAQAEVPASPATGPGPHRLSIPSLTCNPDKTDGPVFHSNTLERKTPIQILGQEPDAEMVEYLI

Molecule: Merlin-NLuc (from UniProt P35240 1-595) (natural protein)
- fold over the negative control (RFP alone), co-precipitated luciferase [1]: 2 fold and 5 fold

B1: Merlin-NLuc (natural protein, UniProt P35240 1-595, looked up)
chain: MAGAIASRMSFSSLKRKQPKTFTVRIVTMDAEMEFNCEMKWKGKDLFDLVCRTLGLRETWFFGLQYTIKDTVAWLKMDKKVLDHDVSKEEPVTFHFLAKFYPENAEEELVQEITQHLFFLQVKKQILDEKIYCPPEASVLLASYAVQAKYGDYDPSVHKRGFLAQEELLPKRVINLYQMTPEMWEERITAWYAEHRGRARDEAEMEYLKIAQDLEMYGVNYFAIRNKKGTELLLGVDALGLHIYDPENRLTPKISFPWNEIRNISYSDKEFTIKPLDKKIDVFKFNSSKLRVNKLILQLCIGNHDLFMRRRKADSLEVQQMKAQAREEKARKQMERQRLAREKQMREEAERTRDELERRLLQMKEEATMANEALMRSEETADLLAEKAQITEEEAKLLAQKAAEAEQEMQRIKATAIRTEEEKRLMEQKVLEAEVLALKMAEESERRAKEADQLKQDLQEAREAERRAKQKLLEIATKPTYPPMNPIPAPLPPDIPSFNLIGDSLSFDFKDTDMKRLSMEIEKEKVEYMEKSKHLQEQLNELKTEIEALKLKERETALDILHNENSDRGGSSKHNTIKKLTLQSAKSRVAFFEEL
- fold over the negative control (RFP alone), bound luciferase (RFP-ASPP2 [2]): 125 fold
- fold over the negative control (RFP alone), bound luciferase (RFP-Lats1 [3]): 268 fold
- fold over the negative control (RFP alone), bound luciferase (RFP-Angiomotin, Q4VCS5 [4]): 2300 fold
- fold over the negative control (RFP alone), co-precipitated luciferase (RFP-Lats1 [5]): > 20 fold
- fold over the negative control (RFP alone), co-precipitated luciferase (RFP-Angiomotin, Q4VCS5 [6]): 100 fold

B2: Merlin S518D (natural protein, UniProt P35240 1-595, looked up)
chain: MAGAIASRMSFSSLKRKQPKTFTVRIVTMDAEMEFNCEMKWKGKDLFDLVCRTLGLRETWFFGLQYTIKDTVAWLKMDKKVLDHDVSKEEPVTFHFLAKFYPENAEEELVQEITQHLFFLQVKKQILDEKIYCPPEASVLLASYAVQAKYGDYDPSVHKRGFLAQEELLPKRVINLYQMTPEMWEERITAWYAEHRGRARDEAEMEYLKIAQDLEMYGVNYFAIRNKKGTELLLGVDALGLHIYDPENRLTPKISFPWNEIRNISYSDKEFTIKPLDKKIDVFKFNSSKLRVNKLILQLCIGNHDLFMRRRKADSLEVQQMKAQAREEKARKQMERQRLAREKQMREEAERTRDELERRLLQMKEEATMANEALMRSEETADLLAEKAQITEEEAKLLAQKAAEAEQEMQRIKATAIRTEEEKRLMEQKVLEAEVLALKMAEESERRAKEADQLKQDLQEAREAERRAKQKLLEIATKPTYPPMNPIPAPLPPDIPSFNLIGDSLSFDFKDTDMKRLDMEIEKEKVEYMEKSKHLQEQLNELKTEIEALKLKERETALDILHNENSDRGGSSKHNTIKKLTLQSAKSRVAFFEEL
- fold less than binding to wild-type Merlin (RFP-ASPP2 [7]): > 2 fold

B3: Merlin S518A (natural protein, UniProt P35240 1-595, looked up)
chain: MAGAIASRMSFSSLKRKQPKTFTVRIVTMDAEMEFNCEMKWKGKDLFDLVCRTLGLRETWFFGLQYTIKDTVAWLKMDKKVLDHDVSKEEPVTFHFLAKFYPENAEEELVQEITQHLFFLQVKKQILDEKIYCPPEASVLLASYAVQAKYGDYDPSVHKRGFLAQEELLPKRVINLYQMTPEMWEERITAWYAEHRGRARDEAEMEYLKIAQDLEMYGVNYFAIRNKKGTELLLGVDALGLHIYDPENRLTPKISFPWNEIRNISYSDKEFTIKPLDKKIDVFKFNSSKLRVNKLILQLCIGNHDLFMRRRKADSLEVQQMKAQAREEKARKQMERQRLAREKQMREEAERTRDELERRLLQMKEEATMANEALMRSEETADLLAEKAQITEEEAKLLAQKAAEAEQEMQRIKATAIRTEEEKRLMEQKVLEAEVLALKMAEESERRAKEADQLKQDLQEAREAERRAKQKLLEIATKPTYPPMNPIPAPLPPDIPSFNLIGDSLSFDFKDTDMKRLAMEIEKEKVEYMEKSKHLQEQLNELKTEIEALKLKERETALDILHNENSDRGGSSKHNTIKKLTLQSAKSRVAFFEEL
- fold greater than binding to wild-type Merlin (RFP-ASPP2 [7]): ~2 fold
